Key:
Biotin-hBA2 = target: T1, Biotin-hBA2 (human, biotinylated (sites not given)); test: blocking ELISA, biotin-hBA2 to hTie-2
T1 construct: hBA2 consists of two dimers; also called biotinylated hBA2; human bow-Ang2

Human Ang-2FD-hFc = target: T2, Human Ang-2FD-hFc (human); test: blocking ELISA, 16.67 nM antibody, Ang-2FD-hFc to coated hTie-2-mFc
T2 construct: also called dimeric human Ang-2FD; human Ang-2FD protein conjugated to human IgG

Mouse Ang-2FD-hFc = target: T3, Mouse Ang-2FD-hFc (mouse (Mus musculus)); test: as above
T3 construct: also called dimeric mouse Ang-2FD
T3 sequence (chain, as listed by the source limits assumed): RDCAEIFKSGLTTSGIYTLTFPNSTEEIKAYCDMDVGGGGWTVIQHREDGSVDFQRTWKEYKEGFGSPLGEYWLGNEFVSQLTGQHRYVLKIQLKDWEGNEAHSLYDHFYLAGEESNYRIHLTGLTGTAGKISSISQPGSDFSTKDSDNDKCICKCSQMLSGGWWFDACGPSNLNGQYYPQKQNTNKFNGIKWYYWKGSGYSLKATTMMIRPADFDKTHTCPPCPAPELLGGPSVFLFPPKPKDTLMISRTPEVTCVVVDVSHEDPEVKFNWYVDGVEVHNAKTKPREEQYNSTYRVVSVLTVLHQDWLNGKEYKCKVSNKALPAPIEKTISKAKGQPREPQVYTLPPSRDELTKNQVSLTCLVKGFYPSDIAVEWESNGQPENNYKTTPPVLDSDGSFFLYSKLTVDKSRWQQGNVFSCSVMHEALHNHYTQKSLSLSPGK

Monkey Ang-2FD-hFc = target: T4, Monkey Ang-2FD-hFc (monkey (Macca fascicularis)); test: as above
T4 construct: also called dimeric monkey Ang-2FD
T4 sequence (chain, as listed by the source limits assumed): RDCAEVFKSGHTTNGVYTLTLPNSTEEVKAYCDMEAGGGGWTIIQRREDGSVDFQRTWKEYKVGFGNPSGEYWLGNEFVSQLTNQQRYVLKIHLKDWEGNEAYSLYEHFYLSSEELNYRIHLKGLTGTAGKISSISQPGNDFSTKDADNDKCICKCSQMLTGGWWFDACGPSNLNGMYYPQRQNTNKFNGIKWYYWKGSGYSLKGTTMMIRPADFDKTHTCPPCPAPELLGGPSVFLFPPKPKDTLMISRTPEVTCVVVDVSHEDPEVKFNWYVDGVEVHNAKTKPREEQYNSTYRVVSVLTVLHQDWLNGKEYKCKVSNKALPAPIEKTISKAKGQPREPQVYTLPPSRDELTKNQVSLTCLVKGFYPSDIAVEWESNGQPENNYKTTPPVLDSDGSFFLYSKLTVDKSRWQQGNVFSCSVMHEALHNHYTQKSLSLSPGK

hAng-1-WT [1] = target: T5, hAng-1-WT (human, UniProt Q15389 20-498, limits assumed); test: SPR, 1 uM blocker premixed with 10 nM hAng-1-WT, over hTie-2-mFc surface
T5 construct: a tag is not mentioned there; also called full-length wild-type human Ang-1
T5 sequence (looked up): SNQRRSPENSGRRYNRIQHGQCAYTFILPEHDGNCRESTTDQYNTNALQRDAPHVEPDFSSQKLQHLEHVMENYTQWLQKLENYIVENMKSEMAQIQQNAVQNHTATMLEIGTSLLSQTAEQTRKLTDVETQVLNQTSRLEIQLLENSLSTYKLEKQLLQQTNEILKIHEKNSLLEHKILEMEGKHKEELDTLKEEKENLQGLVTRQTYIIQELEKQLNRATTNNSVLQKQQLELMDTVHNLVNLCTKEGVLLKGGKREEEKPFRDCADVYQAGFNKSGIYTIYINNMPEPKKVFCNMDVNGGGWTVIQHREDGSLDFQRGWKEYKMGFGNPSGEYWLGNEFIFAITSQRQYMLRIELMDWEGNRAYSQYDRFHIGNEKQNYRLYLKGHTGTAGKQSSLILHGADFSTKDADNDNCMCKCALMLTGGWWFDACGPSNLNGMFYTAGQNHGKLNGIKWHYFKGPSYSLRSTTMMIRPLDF
Procedure: (§1) In this experiment, a human Tie-2 full-length extracellular domain construct (hTie-2-mFc-ecto) was amine-coupled on a BIACORE™ chip to create a receptor coated surface. […] The equilibrated solutions were injected over the receptor surfaces at 5 μL/min for 5 minutes at 25° C.

hAng-1-WT [2] = target: T5, hAng-1-WT; test: SPR, 1 uM blocker premixed with 10 nM hAng-1-WT, over hTie-2-mFc surface; RU of hAng-1 bound
Procedure: as §1

[3] = target: T6, human bow-Ang-2 tetrameric construct (hBA2) (human); test: SPR, captured Ab
T6 construct: also called human BA2; hBA2-hIgG1
T6 sequence (chain, as listed by the source limits assumed): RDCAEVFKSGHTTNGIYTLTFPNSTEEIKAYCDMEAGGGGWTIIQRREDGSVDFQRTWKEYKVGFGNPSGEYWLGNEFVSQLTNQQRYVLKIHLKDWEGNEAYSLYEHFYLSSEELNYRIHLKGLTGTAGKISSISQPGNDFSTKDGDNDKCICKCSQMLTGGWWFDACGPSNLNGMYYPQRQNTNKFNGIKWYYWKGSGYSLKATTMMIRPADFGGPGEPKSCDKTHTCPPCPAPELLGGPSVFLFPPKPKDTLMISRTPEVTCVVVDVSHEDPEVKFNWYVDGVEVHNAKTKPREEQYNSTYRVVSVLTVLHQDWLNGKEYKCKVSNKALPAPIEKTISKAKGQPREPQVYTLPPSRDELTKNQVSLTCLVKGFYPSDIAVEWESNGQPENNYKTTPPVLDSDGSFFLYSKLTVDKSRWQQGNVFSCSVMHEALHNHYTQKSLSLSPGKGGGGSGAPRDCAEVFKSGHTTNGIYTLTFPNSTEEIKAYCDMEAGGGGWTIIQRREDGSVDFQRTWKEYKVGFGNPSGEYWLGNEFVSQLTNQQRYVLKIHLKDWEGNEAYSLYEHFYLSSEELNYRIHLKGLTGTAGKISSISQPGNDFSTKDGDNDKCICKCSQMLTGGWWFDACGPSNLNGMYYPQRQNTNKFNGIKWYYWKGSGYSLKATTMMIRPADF

Monomeric hAng-2FD [4] = target: T7, Monomeric hAng-2FD (human, UniProt O15123 282-496); test: SPR, captured Ab
T7 construct: also called fibrinogen-like domain of human Ang2; Human Ang-2FD
T7 sequence: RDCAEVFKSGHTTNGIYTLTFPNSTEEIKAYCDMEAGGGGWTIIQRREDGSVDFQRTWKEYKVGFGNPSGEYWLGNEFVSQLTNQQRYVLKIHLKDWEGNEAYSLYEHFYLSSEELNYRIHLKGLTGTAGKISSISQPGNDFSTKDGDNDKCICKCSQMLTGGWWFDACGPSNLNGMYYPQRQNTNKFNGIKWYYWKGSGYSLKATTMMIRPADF

[5] = target: T8, wild-type human Ang-2 (hAng-2-WT) (human, UniProt O15123 19-496); test: SPR, captured Ab
T8 construct: called full-length wild-type; also called Full-length wild-type human Ang-2
T8 sequence: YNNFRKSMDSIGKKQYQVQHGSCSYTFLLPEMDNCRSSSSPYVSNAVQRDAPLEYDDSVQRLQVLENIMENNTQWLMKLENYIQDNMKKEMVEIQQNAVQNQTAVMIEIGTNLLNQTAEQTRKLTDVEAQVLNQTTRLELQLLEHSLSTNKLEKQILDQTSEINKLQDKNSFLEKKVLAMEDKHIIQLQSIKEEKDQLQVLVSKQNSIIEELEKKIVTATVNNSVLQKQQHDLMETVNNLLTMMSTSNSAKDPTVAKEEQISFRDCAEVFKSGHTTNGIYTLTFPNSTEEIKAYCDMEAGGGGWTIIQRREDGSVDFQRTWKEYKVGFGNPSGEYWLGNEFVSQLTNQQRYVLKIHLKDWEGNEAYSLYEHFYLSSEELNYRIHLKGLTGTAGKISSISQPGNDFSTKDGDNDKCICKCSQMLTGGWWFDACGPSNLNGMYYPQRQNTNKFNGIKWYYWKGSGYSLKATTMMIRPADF

[6] = target: T9, Dimeric Human Ang-2FD conjugated to human IgG1 (human); test: SPR, captured Ab, RT
T9 construct: also called Human Ang-2FD-hFc; hAng-2FD-hFc
T9 sequence (chain, as listed by the source limits assumed): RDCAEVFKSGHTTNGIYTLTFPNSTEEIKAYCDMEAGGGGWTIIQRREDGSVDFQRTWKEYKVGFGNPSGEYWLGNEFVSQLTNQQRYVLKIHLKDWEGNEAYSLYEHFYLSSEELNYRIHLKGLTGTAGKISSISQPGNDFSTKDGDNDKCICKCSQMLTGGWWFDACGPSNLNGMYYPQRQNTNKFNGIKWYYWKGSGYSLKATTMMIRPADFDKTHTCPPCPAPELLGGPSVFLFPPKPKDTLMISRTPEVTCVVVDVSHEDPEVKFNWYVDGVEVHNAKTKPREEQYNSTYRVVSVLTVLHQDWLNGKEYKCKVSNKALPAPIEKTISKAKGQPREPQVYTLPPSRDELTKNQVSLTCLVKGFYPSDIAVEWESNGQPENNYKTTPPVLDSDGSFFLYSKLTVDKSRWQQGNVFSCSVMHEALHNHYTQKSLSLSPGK
In short: (§2)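 Antibody captured on amine-coupled goat anti-mouse IgG, anti-human κ or anti-human IgG polyclonal surfaces on a CM5 chip; antigen binding and dissociation followed in real time at room temperature. KD and complex dissociation half-life derived by kinetic analysis.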

[7] = target: T10, Dimeric Mouse Ang-2FD conjugated to human IgG1 (mouse (Mus musculus); human); test: SPR, captured Ab, RT
T10 construct: also called Mouse Ang-2FD-hFc
In short: as §2

[8] = target: T11, Dimeric Monkey Ang-2FD conjugated to human IgG1 (monkey (Macca fascicularis); human); test: SPR, captured Ab, RT
T11 construct: also called Monkey Ang-2FD-hFc
In short: as §2

[9] = target: T10, Dimeric Mouse Ang-2FD conjugated to …; test: SPR, captured Ab, 25°C
Procedure: (§3) Each selected antibody or control construct was captured at a flow rate of 40 μL/min for 1 minute on a goat anti-human kappa polyclonal antibody surface created through direct chemical coupling to a BIACORE™ chip to form a captured antibody surface.

[10] = target: T11, Dimeric Monkey Ang-2FD conjugated to …; test: SPR, captured Ab, 25°C
Procedure: as §3

[11] = target: T12, Dimeric Human Ang-2FD-mFc (human, UniProt O15123 282-496); test: SPR, captured Ab, 25°C
T12 construct: also called hAng-2FD-mFc; hAng2-FD-mFc; not shown: mouse Fc (mFc)
T12 sequence: T7 sequence
Procedure: as §3

[12] = target: T10, Dimeric Mouse Ang-2FD conjugated to …; test: SPR, captured Ab, 37°C
Procedure: as §3

[13] = target: T11, Dimeric Monkey Ang-2FD conjugated to …; test: SPR, captured Ab, 37°C
Procedure: as §3

[14] = target: T12, Dimeric Human Ang-2FD-mFc; test: SPR, captured Ab, 37°C
Procedure: as §3

Monomeric hAng-2FD [15] = target: T7, Monomeric hAng-2FD; test: SPR, captured Ab, 25°C
Procedure: (§4) Each selected antibody or control construct was captured at a flow rate of 40 μL/min for 1 minute on a goat anti-human IgG polyclonal antibody surface created through direct chemical coupling to a BIACORE™ chip to form a captured antibody surface.

[16] = target: T8, wild-type human Ang-2 (hAng-2-WT); test: SPR, captured Ab, 25°C
Procedure: as §4

[17] = target: T13, Full-length wild-type human Ang-1 (hAng-1-WT) (human, UniProt Q15389 20-498, limits assumed); test: SPR, captured Ab, 25°C
T13 construct: also called recombinant human Ang-1 (R&D Systems)
T13 sequence (looked up): T5 sequence (looked up)
Procedure: as §4

Monomeric hAng-2FD [18] = target: T7, Monomeric hAng-2FD; test: SPR, captured Ab, 37°C
Procedure: as §4

[19] = target: T8, wild-type human Ang-2 (hAng-2-WT); test: SPR, captured Ab, 37°C
Procedure: as §4

[20] = target: T13, Full-length wild-type human Ang-1 …; test: SPR, captured Ab, 37°C
Procedure: as §4

B1: H1H724N (antibody, V domains shown)
VH: QVQLVESGGGVVQPGRSLRLSCAASGFTLSNYGMHWVRQAPGKGLEWVAVIWHDGSNTYYADSVKGRFTISRDNSKNTLYLQMNSLRAEDTAVYYCTREGLDFWSGYYPNWFDPWGQGTLVTVSS
VL: DIQMTQSPSSLSASVGDRVTITCRASQGIRNDLGWYQQKPGKAPKRLIYAASNLQGGVPSRFSGSGSGTEFTLTISSLQPEDFAAYYCLQHNIYPLTFGGGTKVEIK
For B1, the IC50 (Biotin-hBA2) was 0.004 nM, the “Percent Blocking of Ang-2FD Binding to Tie-2” value (from here on “Percent Blocking”) (Human Ang-2FD-hFc) was 96.6% and the “Percent Blocking” value (Mouse Ang-2FD-hFc) was 97.1%. The “Percent Blocking” value (Monkey Ang-2FD-hFc) was 96.6%, the “Percent of Negative Control Binding” value (hAng-1-WT [1]) was 34% and the “RU (average)” value (hAng-1-WT [2]) was 57 RU.

B2: hTie-2-mFc (Fc fusion)
chain: AMDLILINSLPLVSDAETSLTCIASGWRPHEPITIGRDFEALMNQHQDPLEVTQDVTREWAKKVVWKREKASKINGAYFCEGRVRGEAIRIRTMKMRQQASFLPATLTMTVDKGDNVNISFKKVLIKEEDAVIYKNGSFIHSVPRHEVPDILEVHLPHAQPQDAGVYSARYIGGNLFTSAFTRLIVRRCEAQKWGPECNHLCTACMNNGVCHEDTGECICPPGFMGRTCEKACELHTFGRTCKERCSGQEGCKSYVFCLPDPYGCSCATGWKGLQCNEACHPGFYGPDCKLRCSCNNGEMCDRFQGCLCSPGWQGLQCEREGIPRMTPKIVDLPDHIEVNSGKFNPICKASGWPLPTNEEMTLVKPDGTVLHPKDFNHTDHFSVAIFTIHRILPPDSGVWVCSVNTVAGMVEKPFNISVKVLPKPLNAPNVIDTGHNFAVINISSEPYFGDGPIKSKKLLYKPVNHYEAWQHIQVTNEIVTLNYLEPRTEYELCVQLVRRGEGGEGHPGPVRRFTTASIGLPPPRGLNLLPKSQTTLNLTWQPIFPSSEDDFYVEVERRSVQKSDQQNIKVPGNLTSVLLNNLHPREQYVVRARVNTKAQGEWSEDLTAWTLSDILPPQPENIKISNITHSSAVISWTILDGYSISSITIRYKVQGKNEDQHVDVKIKNATIIQYQLKGLEPETAYQVDIFAENNIGSSNPAFSHELVTLPESQAPADLGGGKGPGEPRGPTIKPCPPCKCPAPNLLGGPSVFIFPPKIKDVLMISLSPIVTCVVVDVSEDDPDVQISWFVNNVEVHTAQTQTHREDYNSTLRVVSALPIQHQDWMSGKEFKCKVNNKDLPAPIERTISKPKGSVRAPQVYVLPPPEEEMTKKQVTLTCMVTDFMPEDIYVEWTNNGKTELNYKNTEPVLDSDGSYFMYSKLRVEKKNWVERNSYSCSVVHEGLHNHHTTKSFSRTPGK
notes: also called hTie-2-mFc-ecto; human Tie-2 conjugated to mouse IgG
In the case of B2, the “Percent of Negative Control Binding” value (hAng-1-WT [1]) is reported as 42% and the “RU (average)” value (hAng-1-WT [2]) is reported as 71 RU.

B3: H1H744N (antibody, V domains shown)
VH: QVQLVQSGVEVKKPGASVKVSCKTSGYTFSNNGFSWVRQAPGQGLEWLGWISGYNGNTNYAQKFQGRVTMTTDTSTSTAYMELRTLRSDDTAVYYCARDQDYSNFHWLDPWGQGTLVTVAS
VL: DIQMTQSPSSVSASVGDRVIITCRASQGLSSWLAWYQQKPGTAPKLLIHSASSLQTGVPSRFSGSGSGTEFALTINSLQPEDFGTYYCQQANSFPLTFGGGTRVEIK
B3 was tested, and the Kd [3] was 0.0172 nM, the T1/2 [3] was 7.37 h and the Kd (Monomeric hAng-2FD [4]) was 1.02 nM. For the same binder, the T1/2 (Monomeric hAng-2FD [4]) was 0.702 h, the Kd [5] was 0.0308 nM and the T1/2 [5] was 13.9 h. The Kd [6] was 0.114 nM, the T1/2 [6] was 2.12 h and the T1/2 [7] was 1.92 h. It also gave a Kd [8] of 0.346 nM, a T1/2 [8] of 2.73 h and a Kd [9] of 0.385 nM. It also gave a T1/2 [9] of 0.55 h, a Kd [10] of 0.244 nM and a T1/2 [10] of 0.4 h. The Kd [11] was 0.116 nM, the T1/2 [11] was 0.383 h and the Kd [12] was 0.215 nM. The T1/2 [12] was 0.433 h, the Kd [13] was 0.32 nM and the T1/2 [13] was 0.183 h. The Kd [14] was 0.105 nM, the T1/2 [14] was 0.3 h and the Kd (Monomeric hAng-2FD [15]) was 0.424 nM. For the same binder, the T ½ (Monomeric hAng-2FD [15]) was 1.55 h, the Kd [16] was 0.0335 nM and the T ½ [16] was 7.5 h. It also gave a Kd [17] of 0.093 nM, a T ½ [17] of 5.05 h and a Kd (Monomeric hAng-2FD [18]) of 1.42 nM. It also gave a T ½ (Monomeric hAng-2FD [18]) of 0.35 h, a Kd [19] of 0.347 nM and a T ½ [19] of 0.8 h. It also gave a Kd [20] of 0.0312 nM and a T ½ [20] of 3.7 h.

B4: H1H706P (antibody, human IgG1, V domains shown)
VH: QVQLVESGGGVVQPGRSLRLSCAASGFTFSSYGMHWVRQAPDKGLEWVAVKWDDGSNKYYADSVKGRFTISRDNSKNTLYLQMNSLRAEDTAVYYCAREGPYDFYSGYGAFDIWGQGTMVTVSS
VL: DIQMTQSPSSLSASVGDRVTITCRASQGISNYLAWFQQKPGKAPKSLIYAASSLQSGVPSKFSGSGSGTDFTLTISSLQPEDFATYYCQQYNSYPRTFGQGTKVEIK
notes: Human IgG1
For B4, the IC50 (Biotin-hBA2) was 0.008 nM, the “Percent Blocking” value (Human Ang-2FD-hFc) was 97.1% and the “Percent Blocking” value (Mouse Ang-2FD-hFc) was 95.9%. For the same binder, the “Percent Blocking” value (Monkey Ang-2FD-hFc) was 99.8%, the “Percent of Negative Control Binding” value (hAng-1-WT [1]) was 83% and the “RU (average)” value (hAng-1-WT [2]) was 140 RU.

From patent US20140112930A1 (published 2014)
